From patent US20190085311
Where a chain is given by its changes, count along the chain named. Numbers in names are those of the source.

B1: D160S/K196S + N107W + E106G (protein)
chain: QAKPQIPKDKSKVAGYIEIPDADIKEPVYPGPATPEQLNRGVSFAEGWESLDDQNISIAGHTFIDRPNYQFTNLKAAKKGSMVYFKVGNETRKYKMTSIRSVKPTDVGVLDEQKGKDKQLTLITCDDYNEKTGVWESRKIFVATEVK
B2: D160S/K196S + F144L + G167E (protein)
chain: B1 chain with G47E, W48N, F85L, G108E
B3: D160S/K196S + N107W + F144L (protein)
chain: B1 chain with G47E, F85L
B4: D160S/K196S + F144L (protein)
chain: B1 chain with G47E, W48N, F85L
B5: D160S/K196S + N107W + G167E (protein)
chain: B1 chain with G47E, G108E
B6: D160S/K196S + A61E (protein)
chain: B1 chain with A2E, G47E, W48N
B7: D160S/K196S + A61T (protein)
chain: B1 chain with A2T, G47E, W48N
B8: D160S/K196S + G167E (protein)
chain: B1 chain with G47E, W48N, G108E
B9: D160S/K196S + N107W (protein)
chain: B1 chain with G47E
B10: D160S/K196S + E106G (protein)
chain: B1 chain with W48N
B11: D160S/K196S + N107W + F144L + G167E (protein)
chain: B1 chain with G47E, F85L, G108E
B12: Reference 2: P94R/D160N/D165A/G167E/K190E/K196T from U.S. Pat. No. 9,267,127 (SEQ ID NO: 52) (protein)
chain: MQAKPQIPKDKSKVAGYIEIPDADIKEPVYPGPATREQLNRGVSFAEENESLDDQNISIAGHTFIDRPNYQFTNLKAAKKGSMVYFKVGNETRKYKMTSIRNVKPTAVEVLDEQKGKDKQLTLITCDDYNEETGVWEKRKIFVATEVK

Target: glucose dehydrogenase containing the LPETG motif

Compared with B1, B2 is higher in “relative apparent “Km” for LPXTG” value: 107% for the first, 166% for the second.

Going from B3 to B4, the “relative apparent “Km” for LPXTG” value falls from 134% to 100%.

Compared with B5, B6 is lower in “relative apparent “Km” for LPXTG” value: 166% for the first, 100% for the second.

Going from B7 to B8, the “relative apparent “Km” for LPXTG” value rises from 97% to 131%.

B9 and B10 are the same in “relative apparent “Km” for LPXTG” value: 121% for the first, 121% for the second.

B11 was tested, and the “relative apparent “Km” for LPXTG” value was 197%.

For B12, the “relative apparent “Km” for LPXTG” value was “lower”.
